For test [1], the target named is T1, N-terminal adhesin domain of CfaE fused to maltose-binding protein (MBP-CfaE-N) (enterotoxigenic Escherichia coli (ETEC), UniProt P25734 23-200).
T1 construct: domain: N-terminal adhesin domain; expressed in SHuffle T7 E. coli and purified on amylose resin; also called recombinant CfaE-N; wild-type CfaE; not shown: donor strand complement included as in Poole et al. 2007
T1 sequence (looked up): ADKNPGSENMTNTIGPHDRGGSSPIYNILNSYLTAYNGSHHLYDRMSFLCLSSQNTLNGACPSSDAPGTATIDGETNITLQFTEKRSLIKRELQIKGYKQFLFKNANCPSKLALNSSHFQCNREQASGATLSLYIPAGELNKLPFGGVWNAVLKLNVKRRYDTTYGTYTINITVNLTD
Kind of test: ELISA on plate-bound MBP-CfaE-N, anti-human IgG Fc-AP, OD405. An excerpt: FIG. 1A is a graph showing concentration-dependent binding of anti-CfaE antibodies as measured by ELISA. IgG bound to immobilized recombinant CfaE-N was detected with an anti-human IgG Fc-chain-specific alkaline phosphatase-conjugated antibody. Error bars represent the range in OD values observed in two independent experiments. The binding curves of the ten anti-CfaE antibodies are superimposed.
(§1) For binding activity of purified HuMAbs against CfaE, 96-well plates (Nunc) were coated overnight at 4° C. with 2 μg/mL of purified MBP-CfaE-N. Plates were blocked with 1% BSA+0.05% Tween 20 in PBS. Purified HuMabs were diluted in 1×PBS+0.1% Tween 20 and added to plates for 1 hour. Plates were stained with alkaline phosphatase-conjugated goat anti-human IgG Fcγ (Jackson ImmunoResearch Laboratories) (1:1,000) for 1 hour and developed using p-nitrophenyl phosphate (ThermoFisher Scientific).
In general terms: In an ELISA, binding on a coated surface is turned into a signal by an enzyme label.

Test [2] deals with T2, MBP-CfaE-N Tyr183Ala mutant (enterotoxigenic Escherichia coli).
T2 construct: tag;N-terminal adhesin domain; not in the list MOLECULES; also called Y183A
As to the kind of experiment: ELISA on plate-bound MBP-CfaE-N Tyr183Ala mutant, OD405. As to the method: as §1
To define the antibody-binding epitope, putative antibody-antigen interaction models were established based on a previously resolved CfaE structure (PDB ID 2Hb0) and the HuMab antibody sequences using an antibody modeling program, BioLuminate (Schrodinger). This software suite develops models of antibody structures from their sequences, followed by computational docking to identify high-confidence antibody-antigen complex models. Based on these models, the software identified potential residues critical for binding interaction. The effect of these residues on the binding activity of the HuMAbs was analyzed by experimental alanine scanning followed by ELISA. […] The R67A mutation eliminated binding activity of HuMab 68-51 and 68-97 (FIG. 3B), while the Y183A mutation affected binding activity of HuMab 68-51, 68-97, 68-90, 67-102, and 840-53 (FIG. 3E). […]

In test [3] the target is T1, N-terminal adhesin domain of CfaE fused …. As to the kind of experiment: ELISA on plate-bound wild-type MBP-CfaE-N, OD405. As to the method:
as §1
To define the antibody-binding epitope, putative antibody-antigen interaction models were established based on a previously resolved CfaE structure (PDB ID 2Hb0) and the HuMab antibody sequences using an antibody modeling program, BioLuminate (Schrodinger). This software suite develops models of antibody structures from their sequences, followed by computational docking to identify high-confidence antibody-antigen complex models. Based on these models, the software identified potential residues critical for binding interaction. The effect of these residues on the binding activity of the HuMAbs was analyzed by experimental alanine scanning followed by ELISA. […] The R67A mutation eliminated binding activity of HuMab 68-51 and 68-97 (FIG. 3B), while the Y183A mutation affected binding activity of HuMab 68-51, 68-97, 68-90, 67-102, and 840-53 (FIG. 3E). […] T91A mutation eliminated binding activity of HuMAb 840-53 and reduced binding activities of HuMAbs 68-51, 68-61, 840-53 and 68-48 (FIG. 3C). N127A mutation eliminated binding activity of HuMAb 68-61 and reduced binding of HuMAbs 68-48 and 68-6 (FIG. 3F). All mutations were found on the surface exposed loops of the N-terminal domain of the CfaE (FIG. 3G). No residues involved in the binding of MAb 68-75 to CfaE were identified.

B1: anti-CfaE HuMab 68-61 (antibody, human IgG1, V domains shown)
VH: QVQLVQSGAEVKNPGSSVRVSCEASGGTFSSFAISWVRQAPGQGLEWMGRIIPILDIVKYAQRFQGRVTISADKSTSTAYMELSSLRSEGTAVYYCARDDIAGSDFDIWGQGTMVTVSS
VL: DIQMTQSPSSLSASVGDRVTITCRASQGISSWLAWYQQKPEKAPKSLIYAASSLQSGVPSRFSGSGSGTDFTLTISSLQPEDFATYYCQQYTSYPYTFGQGTKLEIK
notes: also called 068-61
For orientation: EC50 (read off the curve) means the concentration needed to bring the measured effect to its halfway point. A high value points to lower potency in that assay. On to B1, for which the entries for the “EC50 (read off the curve)” value in test [1], in test [2] and in test [3] were around 0.03 µg/mL, around 0.01 µg/mL and around 0.03 µg/mL, respectively.

B2: anti-CfaE HuMab 68-48 (antibody, human IgG1, V domains shown)
VH: QVQLQQWGAGLLKPSETLSLTCAVYGGSFSGYSWSWIRQSPGKGLEWIGEIYHSGSTNYNPSLKSRVTISGDTSKNQFSLKLSSVTAADTAVYYCARENLQGYYYYGMDVWGQGTTVTVSS
VL: AIQLTQSPSSLSASVGDRVTITCRASQGISSSLAWYQQKPGKAPKLLIYDASSLESGVPSRFSGSGSGTDFTLTISSLQPEDFATYYCQQFNSYPRTFGQGTKVEIK
notes: also called 068-48
For the molecule B2, the “EC50 (read off the curve)” value in test [1] is around 0.03 µg/mL; in test [2] it was around 0.01 µg/mL; in test [3], around 0.03 µg/mL.

B3: anti-CfaE HuMab 68-90 (antibody, human IgG1, V domains shown)
VH: QVQLQQWGAGLLKPSETLSLTCAVYGGSFSAYYWSWIRQPPGKGLEWIGEINHSGNTNYNPSLESRVTISVDTSKNQVSLKQSSVTAADTAVYYCARNWGPNAFDIWGRGTMVTVSS
VL: DIQMTQSPSSVSASVGDRVTITCRASQDITSWLVWYQHKPGKAPKLLIYAASSLQSGVPSRFSGSGSGTDFTLTISSLQPEDFATYYCQQANIFPYTFGQGTKLEIK
notes: also called 068-90
As to B3, the half-maximal effective concentration (EC50 (read off the curve)) in test [1] and in test [3] was around 0.03 µg/mL in each case.
